Measurements from US20180016327A1 (Chugai, published 2018).
Numbering of substitutions follows the chain as printed.

B1: CFP0018 18L 30F (antibody, V domains shown)
VH: QVQLVQSGAEVKKPGSSVKVSCKASGGTFSSYAISWVRQAPGQGLEWMGGIIPIFGTANYAQKFQGRVTITADESTSTAYMELSSLRSEDTAVYYCARQLYGYYELDIWGQGTLVTVSS
VL: DIQMTQSPSSLSASVGDRVTITCRASQSIFDDLAWYQQKPGKAPKLLIYEASSLQSGVPSRFSGSGSGTDFTLTISSLQPEDFATYYCQQYNSYPLTFGQGTKVEIK
B2: CFP0015 (antibody, V domains shown)
VH: QVQLLESGGGLVQPGGSLRLSCAASGFTFSSYAMSWVRQAPGKGLEWVSAISGSGGSTYYADSVKGRFTISRDNSKNTLYLQMNSLRAEDTAVYYCARGDQIWYDQWYYFDMWGQGTLVTVSS
VL: B1 VL with F30E, S53N, N92D, Y94S
notes: IgG format
B3: CFP0018 18L 92P (antibody, V domains shown)
VH: B1 VH
VL: B1 VL with F30S, N92P
B4: CFP0018 18L 30N (antibody, V domains shown)
VH: B1 VH
VL: B1 VL with F30N
B5: CFP0015 15L 30H (antibody, V domains shown)
VH: B2 VH
VL: B1 VL with F30H, S53N, N92D, Y94S
B6: CFP0015 15L 30A (antibody, V domains shown)
VH: B2 VH
VL: B1 VL with F30A, S53N, N92D, Y94S
B7: CFP0018 18L 30H (antibody, V domains shown)
VH: B1 VH
VL: B1 VL with F30H
B8: CFP0018 18L 30Y (antibody, V domains shown)
VH: B1 VH
VL: B1 VL with F30Y
B9: CFP0015 15L 30P (antibody, V domains shown)
VH: B2 VH
VL: B1 VL with F30P, S53N, N92D, Y94S
B10: CFP0015 15L 30N (antibody, V domains shown)
VH: B2 VH
VL: B1 VL with F30N, S53N, N92D, Y94S
B11: CFP0018 18L 96V (antibody, V domains shown)
VH: B1 VH
VL: B1 VL with F30S, L96V
B12: CFP0015 15L 30F (antibody, V domains shown)
VH: B2 VH
VL: B1 VL with S53N, N92D, Y94S
B13: CFP0018 18L 30P (antibody, V domains shown)
VH: B1 VH
VL: B1 VL with F30P
B14: CFP0018 18L 93G (antibody, V domains shown)
VH: B1 VH
VL: B1 VL with F30S, S93G
B15: CFP0018 18L 53H (antibody, V domains shown)
VH: B1 VH
VL: B1 VL with F30S, S53H
B16: CFP0018 18L 50D (antibody, V domains shown)
VH: B1 VH
VL: B1 VL with F30S, E50D
B17: CFP0018 18L 30T (antibody, V domains shown)
VH: B1 VH
VL: B1 VL with F30T
B18: CFP0018 18L 30Q (antibody, V domains shown)
VH: B1 VH
VL: B1 VL with F30Q
B19: CFP0018 18L 32N (antibody, V domains shown)
VH: B1 VH
VL: B1 VL with F30S, D32N
B20: CFP0015 15L 30S (antibody, V domains shown)
VH: B2 VH
VL: B1 VL with F30S, S53N, N92D, Y94S
B21: CFP0018 18L 92E (antibody, V domains shown)
VH: B1 VH
VL: B1 VL with F30S, N92E
B22: CFP0018 18L 92Q (antibody, V domains shown)
VH: B1 VH
VL: B1 VL with F30S, N92Q
B23: CFP0018 18L 94H (antibody, V domains shown)
VH: B1 VH
VL: B1 VL with F30S, Y94H
B24: CFP0018 18L 92T (antibody, V domains shown)
VH: B1 VH
VL: B1 VL with F30S, N92T
B25: CFP0018 18L 94F (antibody, V domains shown)
VH: B1 VH
VL: B1 VL with F30S, Y94F
B26: CFP0015 15L 30Q (antibody, V domains shown)
VH: B2 VH
VL: B1 VL with F30Q, S53N, N92D, Y94S
B27: CFP0018 18L 92D (antibody, V domains shown)
VH: B1 VH
VL: B1 VL with F30S, N92D
B28: CFP0018 18L 94W (antibody, V domains shown)
VH: B1 VH
VL: B1 VL with F30S, Y94W
B29: CFP0018 18L 96H (antibody, V domains shown)
VH: B1 VH
VL: B1 VL with F30S, L96H
B30: CFP0018 18L 31N (antibody, V domains shown)
VH: B1 VH
VL: B1 VL with F30S, D31N
B31: CFP0018 18L 96W (antibody, V domains shown)
VH: B1 VH
VL: B1 VL with F30S, L96W
B32: CFP0018 18L 96I (antibody, V domains shown)
VH: B1 VH
VL: B1 VL with F30S, L96I
B33: CFP0018 18L 96M (antibody, V domains shown)
VH: B1 VH
VL: B1 VL with F30S, L96M
B34: CFP0018 18L 93N (antibody, V domains shown)
VH: B1 VH
VL: B1 VL with F30S, S93N
B35: CFP0018 18L 96P (antibody, V domains shown)
VH: B1 VH
VL: B1 VL with F30S, L96P
B36: CFP0018 18L 53N (antibody, V domains shown)
VH: B1 VH
VL: B1 VL with F30S, S53N
B37: CFP0015 15L 30D (antibody, V domains shown)
VH: B2 VH
VL: B1 VL with F30D, S53N, N92D, Y94S
B38: CFP0018 18L 53T (antibody, V domains shown)
VH: B1 VH
VL: B1 VL with F30S, S53T
B39: CFP0018 18L 96Y (antibody, V domains shown)
VH: B1 VH
VL: B1 VL with F30S, L96Y
B40: CFP0018 18L 92S (antibody, V domains shown)
VH: B1 VH
VL: B1 VL with F30S, N92S
B41: CFP0018 18L 93R (antibody, V domains shown)
VH: B1 VH
VL: B1 VL with F30S, S93R
B42: CFP0015 15L 30T (antibody, V domains shown)
VH: B2 VH
VL: B1 VL with F30T, S53N, N92D, Y94S
B43: CFP0018 18L 32Q (antibody, V domains shown)
VH: B1 VH
VL: B1 VL with F30S, D32Q
B44: CFP0018 18L 93D (antibody, V domains shown)
VH: B1 VH
VL: B1 VL with F30S, S93D
B45: CFP0018 18L 96F (antibody, V domains shown)
VH: B1 VH
VL: B1 VL with F30S, L96F

target: T1, human C5 (human, UniProt P01031 19-673; P01031 678-1676, Beta and alpha chains are disulfide-linked and the protein is glycosylated.); experiment: Biacore, captured antibody, pH 7.4, 37 C;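 note: biacore binding response of anti-C5 antibody light chain variants captured on chip with human C5 injected, ACES running buffer containing 1.2 mM CaCl₂, parent light chain antibody set to 100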
T1 construct: Either in-house recombinant C5 or plasma derived C5 (CALBIOCHEM) was used; also called recombinant human C5; plasma derived human C5

Going from B1 to B2, the “% binding (parent = 100)” value rises from 85.2% to 100%.

Compared with B3, B4 is higher in “% binding (parent = 100)” value: 64.5% for the first, 201% for the second.

Compared with B5, B6 is higher in “% binding (parent = 100)” value: 18.4% for the first, 25.7% for the second.

Compared with B7, B8 is lower in “% binding (parent = 100)” value: 87.2% for the first, 82.4% for the second.

Going from B9 to B10, the “% binding (parent = 100)” value falls from 60.9% to 21.4%.

Compared with B11, B12 is lower in “% binding (parent = 100)” value: 70.3% for the first, 39.7% for the second.

Compared with B13, B14 is lower in “% binding (parent = 100)” value: 111% for the first, 79.1% for the second.

Compared with B15, B16 is lower in “% binding (parent = 100)” value: 94.4% for the first, 22.2% for the second.

Going from B17 to B18, the “% binding (parent = 100)” value rises from 90.7% to 130%.

Compared with B19, B20 is lower in “% binding (parent = 100)” value: 527% for the first, 23.1% for the second.

Going from B21 to B22, the “% binding (parent = 100)” value rises from 40.9% to 125%.

First: B23
Second: B24
The “% binding (parent = 100)” value of the first is lower: 17.6% for the first, 95.1% for the second.

Compared with B25, B26 is higher in “% binding (parent = 100)” value: 28.6% for the first, 42.6% for the second.

Compared with B27, B28 is higher in “% binding (parent = 100)” value: 31.7% for the first, 33.7% for the second.

First: B29
Second: B30
The “% binding (parent = 100)” value of the first is lower: 114% for the first, 130% for the second.

Going from B31 to B32, the “% binding (parent = 100)” value rises from 16.9% to 56%.

Going from B33 to B34, the “% binding (parent = 100)” value rises from 46.2% to 107%.

First: B35
Second: B36
The “% binding (parent = 100)” value of the first is lower: 18% for the first, 91.2% for the second.

First: B37
Second: B38
The “% binding (parent = 100)” value of the first is higher: 59.9% for the first, 44.5% for the second.

First: B39
Second: B40
The “% binding (parent = 100)” value of the first is lower: 23% for the first, 104% for the second.

Compared with B41, B42 is lower in “% binding (parent = 100)” value: 136% for the first, 25.1% for the second.

Going from B43 to B44, the “% binding (parent = 100)” value rises from 21.9% to 23.8%.

With B45 the “% binding (parent = 100)” value was 31.8%.
